Measurements taken from the supplement of paper PMC10126150.
± gives the standard deviation of the averaged measurements.

Tested on: ATP
Experiment: switch fluorescence ratio, 500 uM ATP over buffer (Cy3 cluster intensity, sum of 5 cycles each) (fold (ratio)); higher = stronger signal-on switching upon ATP binding; sequences stand for … in TCGTCGGCAGCGTCAGATGTGTATAAGAGACAGTTTTTTTTTTTTTTTTTTTTTTTTT…TC
Conditions: aptamer strand: ATP DNA aptamer (quencher-CACCTGGGGGAGTATTGCGGAGGAAGG + anchor), 100 nM annealed; ATP concentration: 500 uM
Method in brief: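 Five buffer/ATP imaging cycles were run on Cy3-labelled switching-strand clusters on a modified Illumina MiSeq flow-cell, with NaOH stripping and re-annealing between cycles. In each cycle, clusters annealed to 100 nM quencher-labelled ATP aptamer were imaged in selection buffer, then after 15 min with 500 uM ATP at 22 °C. Per cluster, the fluorescence ratio is summed target-cycle over summed buffer-cycle Cy3 intensity, averaged per switch-domain sequence. Only clusters within 100-1000 RFU were kept.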
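Also: ATP exposure 15 min at 22 °C before imaging.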

Row | Sequence | switch fluorescence ratio
1 | TCGCTTTGCT | 1.31 ± 0.42
2 | TCGCTTTTTT | 1.03 ± 0.068
3 | TCGGAATCTG | 1 ± 0.1
4 | TCGGACCCTA | 1.03 ± 0.041
5 | TCGGACGTCG | 1.07 ± 0.019
6 | TCGGACGTGC | 1.35 ± 0.1
7 | TCGGAGTAAC | 1.667 ± 0.0081
8 | TCGGAGTTTA | 1.04 ± 0.016
9 | TCGGATAGGT | 1.02 ± 0.025
10 | TCGGATGTCA | 0.965 ± 0.049
11 | TCGGATTAGT | 1 ± 0.025
12 | TCGGATTGTG | 1.01 ± 0.021
13 | TCGGCAATGT | 2.32 ± 1.6
14 | TCGGCAGGGG | 1.09 ± 0.035
15 | TCGGCCATGG | 0.985 ± 0.031
16 | TCGGCGGACA | 1 ± 0.023
17 | TCGGCGGTTT | 0.977 ± 0.058
18 | TCGGCTATGA | 1.03 ± 0.021
19 | TCGGGAACGA | 0.999 ± 0.028
20 | TCGGGACATC | 1.03 ± 0.032
21 | TCGGGAGCCT | 0.973 ± 0.015
22 | TCGGGAGGGG | 0.989 ± 0.033
23 | TCGGGAGTAC | 1.01 ± 0.015
24 | TCGGGATCTG | 0.997 ± 0.018
25 | TCGGGATGGC | 1.03 ± 0.024

Row | Sequence | switch fluorescence ratio
26 | TCGGGATTTA | 1.02 ± 0.033
27 | TCGGGCAGGT | 1.06 ± 0.064
28 | TCGGGGATCG | 1.006 ± 0.0025
29 | TCGGGGCCAA | 0.991 ± 0.019
30 | TCGGGGGAAT | 1.11 ± 0.14
31 | TCGGGGGCTG | 0.9799 ± 0.0077
32 | TCGGGGGGCA | 0.992 ± 0.028
33 | TCGGGGGTCC | 1 ± 0.066
34 | TCGGGGTAGC | 0.974 ± 0.025
35 | TCGGGGTCGG | 1.03 ± 0.016
36 | TCGGGGTCGT | 0.9859 ± 0.0065
37 | TCGGGGTTA | 0.979 ± 0.029
38 | TCGGGGTTCA | 1.04 ± 0.03
39 | TCGGGGTTGT | 1.01 ± 0.087
40 | TCGGGTAAGC | 1.014 ± 0.0052
41 | TCGGGTACGT | 0.967 ± 0.032
42 | TCGGGTAGGG | 0.991 ± 0.025
43 | TCGGGTCTGC | 1.01 ± 0.015
44 | TCGGGTTGTA | 1 ± 0.025
45 | TCGGGTTTAG | 1.04 ± 0.04
46 | TCGGGTTTGG | 1.01 ± 0.041
47 | TCGGTACGG | 1.07 ± 0.017
48 | TCGGTAGGGG | 0.999 ± 0.025
49 | TCGGTATATG | 0.991 ± 0.011
50 | TCGGTATGAG | 0.9698 ± 0.0027

Row | Sequence | switch fluorescence ratio
51 | TCGGTCCAGG | 1.39 ± 0.14
52 | TCGGTGCGAC | 1.04 ± 0.032
53 | TCGGTGTGAG | 1.01 ± 0.03
54 | TCGGTGTGCG | 1.03 ± 0.033
55 | TCGGTGTGCT | 1.06 ± 0.064
56 | TCGGTTAGT | 0.96 ± 0.054
57 | TCGGTTCGTG | 1.01 ± 0.054
58 | TCGGTTTATA | 0.997 ± 0.01
59 | TCGGTTTGGA | 1.019 ± 0.0063
60 | TCGGTTTGGT | 1.01 ± 0.024
61 | TCGTAAGAAA | 1.01 ± 0.043
62 | TCGTACAGTT | 1.03 ± 0.02
63 | TCGTACGTTT | 1.04 ± 0.021
64 | TCGTAGCTAA | 4.37 ± 0.23
65 | TCGTAGGCCT | 0.981 ± 0.061
66 | TCGTAGGGTC | 0.982 ± 0.047
67 | TCGTATCGGG | 1 ± 0.034
68 | TCGTATCGTA | 0.975 ± 0.013
69 | TCGTATGCGT | 1.11 ± 0.25
70 | TCGTATGTTT | 0.985 ± 0.021
71 | TCGTCAAAGA | 1.07 ± 0.023
72 | TCGTCATTGC | 1.22 ± 0.037
73 | TCGTCGGGGC | 1.03 ± 0.029
74 | TCGTCGTACG | 1.02 ± 0.021
75 | TCGTCGTAGG | 1.01 ± 0.03

Row | Sequence | switch fluorescence ratio
76 | TCGTGAACGT | 0.978 ± 0.011
77 | TCGTGCAACA | 0.983 ± 0.025
78 | TCGTGCTGCG | 1.0004 ± 0.00051
79 | TCGTGGAGGT | 0.985 ± 0.036
80 | TCGTGGGGGA | 1.02 ± 0.028
81 | TCGTGGGGGT | 0.979 ± 0.045
82 | TCGTGGGGTT | 1.02 ± 0.012
83 | TCGTGGTCTG | 0.999 ± 0.036
84 | TCGTGTAAAC | 0.981 ± 0.028
85 | TCGTGTATTG | 0.984 ± 0.026
86 | TCGTGTTCTG | 1.01 ± 0.029
87 | TCGTGTTTCA | 1 ± 0.014
88 | TCGTTACAGA | 1.02 ± 0.045
89 | TCGTTATGGA | 0.987 ± 0.035
90 | TCGTTATTTT | 1.04 ± 0.052
91 | TCGTTCACTG | 0.9891 ± 0.007
92 | TCGTTCAGGA | 0.995 ± 0.013
93 | TCGTTCCGGT | 1.02 ± 0.026
94 | TCGTTGAGGG | 0.96 ± 0.036
95 | TCGTTGATGT | 1 ± 0.049
96 | TCGTTGTTAG | 0.992 ± 0.02
97 | TCGTTTAGCA | 1.07 ± 0.029
98 | TCGTTTCCGT | 0.984 ± 0.035
99 | TCGTTTGAGT | 0.997 ± 0.021
100 | TCTAACGCTG | 1.13 ± 0.056

Row | Sequence | switch fluorescence ratio
101 | TCTAACTTTT | 1.01 ± 0.033
102 | TCTAAGGGAG | 0.987 ± 0.012
103 | TCTAATAGCC | 1.03 ± 0.08
104 | TCTAATGGGC | 0.993 ± 0.05
105 | TCTAATGGGT | 0.982 ± 0.017
106 | TCTAATTCCT | 1.06 ± 0.024
107 | TCTAGAGCGG | 1.02 ± 0.029
108 | TCTAGGGACA | 1.25 ± 0.063
109 | TCTAGGGGGG | 1.02 ± 0.058
110 | TCTATAAGGA | 1.01 ± 0.048
111 | TCTATAAGTT | 1.02 ± 0.044
112 | TCTATGCGGG | 1.017 ± 0.0013
113 | TCTATTATCA | 1.04 ± 0.024
114 | TCTATTATTT | 1.03 ± 0.061
115 | TCTATTGGTG | 1.02 ± 0.069
116 | TCTATTGGTT | 0.966 ± 0.021
117 | TCTATTTCGT | 1.01 ± 0.032
118 | TCTCATTCTT | 1.03 ± 0.028
119 | TCTCATTGGG | 0.9875 ± 0.004
120 | TCTCCAGATA | 1.12 ± 0.034
121 | TCTCCAGGAA | 1.62 ± 0.3
122 | TCTCCGTGGG | 1.52 ± 0.37
123 | TCTCGATTTT | 1.038 ± 0.0042
124 | TCTCGCTTGG | 1.02 ± 0.037
125 | TCTCGGCGGA | 1.02 ± 0.028

Row | Sequence | switch fluorescence ratio
126 | TCTCGGGCTT | 0.9873 ± 0.0047
127 | TCTCGGGGTG | 1.04 ± 0.089
128 | TCTCGTATAT | 1.05 ± 0.045
129 | TCTCGTCTCT | 1.04 ± 0.028
130 | TCTCGTTGGG | 1.012 ± 0.005
131 | TCTCGTTTTT | 1 ± 0.043
132 | TCTCTAAAGA | 1.04 ± 0.016
133 | TCTCTATCCG | 0.997 ± 0.046
134 | TCTCTGAATC | 1.24 ± 0.079
135 | TCTCTGGAGA | 1.04 ± 0.011
136 | TCTCTGGCAT | 1.79 ± 0.19
137 | TCTCTGTTTT | 1.05 ± 0.022
138 | TCTGAAAGTG | 0.989 ± 0.059
139 | TCTGAACGGT | 0.983 ± 0.023
140 | TCTGAGAGGA | 0.972 ± 0.032
141 | TCTGAGCCGA | 1.39 ± 0.52
142 | TCTGAGCGGC | 0.9349 ± 0.0037
143 | TCTGAGTTTT | 1.05 ± 0.06
144 | TCTGATGGGG | 1 ± 0.044
145 | TCTGCCTTGG | 0.984 ± 0.011
146 | TCTGCTACAA | 1.02 ± 0.038
147 | TCTGCTTCCG | 1.03 ± 0.02
148 | TCTGGAAAGG | 0.9844 ± 0.00033
149 | TCTGGAAGGG | 1.02 ± 0.019
150 | TCTGGACTCG | 1 ± 0.025

Row | Sequence | switch fluorescence ratio
151 | TCTGGGAAAA | 0.918 ± 0.037
152 | TCTGGGAAGG | 1.01 ± 0.042
153 | TCTGGGAATG | 0.983 ± 0.01
154 | TCTGGGGGGC | 0.996 ± 0.075
155 | TCTGGGGGGG | 0.99 ± 0.052
156 | TCTGGGGGTA | 0.982 ± 0.022
157 | TCTGGGTAAT | 0.996 ± 0.0013
158 | TCTGGGTAGC | 1 ± 0.061
159 | TCTGGGTGAT | 1.03 ± 0.015
160 | TCTGGTAGGG | 0.99 ± 0.01
161 | TCTGGTGGTT | 0.981 ± 0.01
162 | TCTGGTTTGT | 1.04 ± 0.049
163 | TCTGGTTTTT | 1.01 ± 0.015
164 | TCTGTCCCGC | 1.16 ± 0.11
165 | TCTGTGTTT | 0.9348 ± 0.0089
166 | TCTGTTTTTG | 1.01 ± 0.063
167 | TCTTAAAGGG | 0.9808 ± 0.0011
168 | TCTTACTGGG | 0.997 ± 0.018
169 | TCTTAGGGGT | 0.981 ± 0.021
170 | TCTTAGGTCA | 0.973 ± 0.022
171 | TCTTAGTAC | 1.05 ± 0.013
172 | TCTTAGTGGG | 1.01 ± 0.017
173 | TCTTAGTTAG | 0.9878 ± 0.0059
174 | TCTTAGTTTG | 0.986 ± 0.015
175 | TCTTATAGGT | 0.986 ± 0.017

Row | Sequence | switch fluorescence ratio
176 | TCTTATCGTT | 0.964 ± 0.019
177 | TCTTATGCGG | 0.998 ± 0.019
178 | TCTTATGGGG | 0.994 ± 0.019
179 | TCTTCCGGTT | 1.233 ± 0.0018
180 | TCTTGCAAGG | 1.11 ± 0.17
181 | TCTTGCGTGG | 0.954 ± 0.01
182 | TCTTGCTCGG | 1.01 ± 0.053
183 | TCTTGCTCGT | 1.02 ± 0.0014
184 | TCTTGGGCCG | 1.03 ± 0.061
185 | TCTTGGGCTG | 0.9719 ± 0.0073
186 | TCTTGGGGGC | 1.01 ± 0.052
187 | TCTTGGGGT | 1.06 ± 0.15
188 | TCTTGGTAAT | 0.996 ± 0.018
189 | TCTTGTGCAT | 1.05 ± 0.03
190 | TCTTGTTAT | 1.01 ± 0.051
191 | TCTTGTTTTG | 0.994 ± 0.048
192 | TCTTTAATTT | 0.985 ± 0.026
193 | TCTTTCAGTT | 0.9816 ± 0.0082
194 | TCTTTGAGGT | 0.989 ± 0.022
195 | TCTTTGATCT | 1.02 ± 0.054
196 | TCTTTGATTA | 1.01 ± 0.042
197 | TCTTTGCGCG | 1.02 ± 0.019
198 | TCTTTGGACT | 1.002 ± 0.0032
199 | TCTTTGGGGG | 1 ± 0.053
200 | TCTTTGGTCG | 1.02 ± 0.12
